Assay results: US20190336574A1 (TRUSTEES OF PRINCETON UNIVERSITY, published 2019)
Positions count from the first letter of the chain named.

What was measured:
Test in all cases: co-IP (anti-Myc) from HEK293T lysates, western blot
[1] = target: T1, HA-SND1 F250A, full-length human (human, UniProt Q7KZF4 1-910)
T1 construct: Full-length, HA-tagged
T1 sequence: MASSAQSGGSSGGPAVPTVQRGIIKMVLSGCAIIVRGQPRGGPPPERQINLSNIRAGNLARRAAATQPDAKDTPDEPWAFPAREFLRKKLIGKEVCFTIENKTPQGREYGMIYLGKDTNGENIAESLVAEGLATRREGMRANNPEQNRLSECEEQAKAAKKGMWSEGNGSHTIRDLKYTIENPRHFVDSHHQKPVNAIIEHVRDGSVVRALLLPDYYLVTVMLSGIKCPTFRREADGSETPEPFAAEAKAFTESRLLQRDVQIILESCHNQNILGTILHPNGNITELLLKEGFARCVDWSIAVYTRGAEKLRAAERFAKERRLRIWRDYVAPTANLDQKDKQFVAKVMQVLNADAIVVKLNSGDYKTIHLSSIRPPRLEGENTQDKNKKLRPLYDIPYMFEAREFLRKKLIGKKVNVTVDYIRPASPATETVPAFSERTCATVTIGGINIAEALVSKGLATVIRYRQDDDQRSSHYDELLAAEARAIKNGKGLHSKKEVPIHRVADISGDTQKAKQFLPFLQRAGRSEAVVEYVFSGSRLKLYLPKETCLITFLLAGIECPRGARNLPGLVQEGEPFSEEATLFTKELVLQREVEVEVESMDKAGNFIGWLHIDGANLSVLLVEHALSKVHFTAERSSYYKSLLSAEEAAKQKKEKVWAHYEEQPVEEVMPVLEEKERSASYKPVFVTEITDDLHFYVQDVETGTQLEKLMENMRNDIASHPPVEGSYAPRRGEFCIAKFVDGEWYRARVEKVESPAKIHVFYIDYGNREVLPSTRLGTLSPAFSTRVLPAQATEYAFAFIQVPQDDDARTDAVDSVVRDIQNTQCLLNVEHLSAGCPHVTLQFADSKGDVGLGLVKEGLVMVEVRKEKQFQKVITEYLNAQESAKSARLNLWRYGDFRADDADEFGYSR

[2] = target: T2, HA-SND1 Δ39-43, full-length human (human, UniProt Q7KZF4 1-910)
T2 construct: also called 439-43
T2 sequence: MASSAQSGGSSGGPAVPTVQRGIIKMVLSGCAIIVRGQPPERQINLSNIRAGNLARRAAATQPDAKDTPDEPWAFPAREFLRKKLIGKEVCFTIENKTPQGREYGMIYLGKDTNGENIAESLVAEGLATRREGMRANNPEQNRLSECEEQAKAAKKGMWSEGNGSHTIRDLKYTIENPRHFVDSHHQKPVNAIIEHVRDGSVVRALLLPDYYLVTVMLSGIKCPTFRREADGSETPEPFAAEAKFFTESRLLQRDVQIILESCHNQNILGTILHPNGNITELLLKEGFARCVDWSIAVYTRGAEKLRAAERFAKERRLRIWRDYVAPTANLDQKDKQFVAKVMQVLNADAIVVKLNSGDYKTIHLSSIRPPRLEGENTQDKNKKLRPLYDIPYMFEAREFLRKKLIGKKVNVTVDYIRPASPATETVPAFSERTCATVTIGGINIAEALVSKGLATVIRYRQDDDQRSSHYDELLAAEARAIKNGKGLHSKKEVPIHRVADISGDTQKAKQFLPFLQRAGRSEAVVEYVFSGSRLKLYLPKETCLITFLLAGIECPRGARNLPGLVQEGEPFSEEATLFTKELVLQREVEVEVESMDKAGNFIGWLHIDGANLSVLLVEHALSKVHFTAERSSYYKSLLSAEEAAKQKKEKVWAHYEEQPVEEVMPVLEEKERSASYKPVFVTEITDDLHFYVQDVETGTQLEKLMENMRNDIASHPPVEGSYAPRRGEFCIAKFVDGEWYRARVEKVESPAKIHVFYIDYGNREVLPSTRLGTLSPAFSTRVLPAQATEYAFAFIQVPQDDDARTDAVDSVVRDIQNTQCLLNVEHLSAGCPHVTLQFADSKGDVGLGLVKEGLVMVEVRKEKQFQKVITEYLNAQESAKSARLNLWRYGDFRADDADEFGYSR

[3] = target: T3, HA-SND1 R255E, full-length human (human, UniProt Q7KZF4 1-910)
T3 construct: Full-length, HA-tagged
T3 sequence: T1 sequence with A250F, R255E

Measured: binding result

B1: Myc-MTDH, full-length human, wild type (other)
chain: MAARSWQDELAQQAEEGSARLREMLSVGLGFLRTELGLDLGLEPKRYPGWVILVGTGALGLLLLFLLGYGWAAACAGSRKKRRSPPRKREEAAAVPAAAPDDLALLKNLRSEEQKKKNRKKLSEKPKPNGRTVEVAEGEAVRTPQSVTAKQPPEIDKKNEKSKKNKKKSKSDAKAVQNSSRHDGKEVDEGAWETKISHREKRQQRKRDKVLTDSGSLDSTIPGIENTITVTTEQLTTASFPVGSKKNKGDSHLNVQVSNFKSGKGDSTLQVSSGLNENLTVNGGGWNEKSVKLSSQISAGEEKWNSVSPASAGKRKAEPSAWSQDTGDANTNGKDWGRSWSDRSIFSGIGSTAEPVSQSTTSDYQWDVSRNQPYIDDEWSGLNGLSSADPNSDWNAPAEEWGNWVDEERASLLKSQEPIPDDQKVSDDDKEKGEGALPTGKSKKKKKKKKKQGEDNSTAQDTEELEKEIREDLPVNTSKTRPKQEKAFSLKTISTSDPAEVLVKNSQPIKTLPPATSTEPSVILSKSDSDKSSSQVPPILQETDKSKSNTKQNSVPPSQTKSETSWESPKQIKKKKKARRET
notes: Full-length, Myc-tagged; Expressed in HEK293T cells, tested in lysate; also called Myc-tagged MTDH; WT Myc-MTDH
no binding: all assays above
